Patent US20260263521A1, “ANTI-CD200R1 ANTIBODY AND USE THEREOF” (AIMED BIO INC., priority 2023, published 2026)

Assays:
[1] = tested on: cynomolgus CD200R1; experiment: SPR binding kinetics, cynomolgus CD200R1; details: cynomolgus CD200R1-his captured on anti-His CM5 chip, 1:1 Langmuir fit
Protocol: The CD200R1-specific binding ability of the antibodies (P001009 wt, P001009 v1, P001009 v2, P001009 v3, P001009 v4) selected in Example 14 was analyzed using surface plasma resonance (SPR). For the experiment, 30 μg/mL of an anti-histidine antibody was conjugated to a CM5 biacore chip via an amine bond while allowing to flow at 10 μl/min (10,000 RU). Then, 0.25 μg/mL of human or cynomolgus CD200R1 with dual His-tags was captured onto the completed chip for 60 seconds, and the binding ability of each antibody was analyzed. All experiments were performed by association of antibodies for 120 seconds and dissociation of antibodies for 600 seconds. The resulting graphs were fitted using a 1:1 Langmuir binding kinetic model (FIG. 16), and the kinetics of each antibody were calculated.

[2] = tested on: Dok2 phosphorylation in Jurkat-CD200R1 cells; experiment: Dok2 protein phosphorylation, Jurkat-CD200R1 reporter cells (PathHunter); format: cell-based, human; details: for RLU: Jurkat-CD200R1 reporter cells, Fc capture antibody
Protocol: Jurkat-CD200R1 cells were maintained as shown in Example 17 and were then seeded in triplicate onto CulturePlate-384, a White Opaque 384-well microplate (PerkinElmer, #6007688) at a density of 8,000 cells/well (32 μl). AssayComplete Cell Plating 0 Reagent (DiscoverX, #93-0563ROA) was used for cell plating and antibody dilution. The seeded cells were incubated at 37° C. and 5% CO2 for 30 minutes.
During the reaction, an Fc capture antibody, anti-human IgG (Fc-specific) antibody produced in goat (Sigma Aldrich, #12136, 2.3 mg/ml), was diluted in AssayComplete media and incubated at 37° C., 5% CO2 for 30 minutes. After incubation of both the plate containing the cells and the Fc capture antibody, the cells were treated with the Fc capture antibody at a concentration of 50 μg/ml per well. The reaction was incubated for 3 hours at 37° C., 5% CO2. After cross-reactivity with the Fc capture antibody, the cells were treated with a total of three antibodies, as shown in Example 17. The cells were diluted two-fold from a maximum concentration of 50 nM to 25 nM, 12.5 nM, 6.25 nM, 3.12 nM, 1.56 nM, 0.78 nM, 0.39 nM, 0.20 nM, 0.098 nM, and 0.049 nM. After treatment, the result was reacted at room temperature for an additional 2 hours.
The PathHunter Detection kit (DiscoverX, #93-0001) was used to confirm the response of the treated antibodies to the Jurkat-CD200R1 reporter cell line. Final data were analyzed using an Infinite M200 Pro Plate reader (Tecan) to measure the luminescence from phosphorylated Dok2. […] luminescence unit (RLU) is an arbitrary unit representing luminescence, calculated by converting the signal detected by a cross-linked Fc capture antibody.

Row | Molecule | Ka [1] [M⁻¹ s⁻¹] | luminescence due to phosphoDok2 [2] | RLU ([2]; antibody dose 0.05 nM) [a.u.] | RLU ([2]; antibody dose 0.10 nM) [a.u.] | RLU ([2]; antibody dose 0.20 nM) [a.u.] | RLU ([2]; antibody dose 0.39 nM) [a.u.] | RLU ([2]; antibody dose 0.78 nM) [a.u.] | RLU ([2]; antibody dose 1.56 nM) [a.u.] | RLU ([2]; antibody dose 3.13 nM) [a.u.] | RLU ([2]; antibody dose 6.25 nM) [a.u.] | RLU ([2]; antibody dose 12.5 nM) [a.u.] | RLU ([2]; antibody dose 25 nM) [a.u.] | RLU ([2]; antibody dose 50 nM) [a.u.]
1 | P001009: phage display anti-CD200R1 clone; VH SEQ ID NO: 79, VL SEQ ID NO: 94 (antibody, V domains shown) VH: EVQLLESGGGLVQPGGSLRLSCAASGFTFSSYDMSWVRQAPGKGLEWVSWISHGGGSIYYADSVKGRFTISRDNSKNTLYLQMNSLRAEDTAVYYCARDAPAYSAPLFDYWGQGTLVTVSS VL: QSVLTQPPSASGTPGQRVTISCSGSSSNIGNNAVNWYQQLPGTAPKLLIYYDSNRPSGVPDRFSGSKSGTSASLAISGLRSEDEADYYCAAWDDSLSGYVFGGGTKLTVL | 5.63e+06 | exhibited luminescence due to phosphoDok2 | 10432 ± 2166 | 10359 ± 1227 | 15184 ± 2826 | 10861 ± 917 | 25264 ± 1484 | 33140 ± 5780 | 41203 ± 4810 | 56115 ± 6866 | 57733 ± 6385 | 50858 ± 8029 | 37120 ± 14299
2 | P001009v1: P001009 variant, LC S52 and LC S94 substituted with K and R; VH SEQ ID NO: 79 (antibody, V domains shown) VH: EVQLLESGGGLVQPGGSLRLSCAASGFTFSSYDMSWVRQAPGKGLEWVSWISHGGGSIYYADSVKGRFTISRDNSKNTLYLQMNSLRAEDTAVYYCARDAPAYSAPLFDYWGQGTLVTVSS VL: QSVLTQPPSASGTPGQRVTISCSGSSSNIGNNAVNWYQQLPGTAPKLLIYYDKNRPSGVPDRFSGSKSGTSASLAISGLRSEDEADYYCAAWDDRLSGYVFGGGTKLTVL | 5.23e+06 | exhibited luminescence due to phosphoDok2 | 9521 ± 1128 | 10677 ± 2258 | 17866 ± 1925 | 11340 ± 509 | 28644 ± 4755 | 32863 ± 4207 | 29729 ± 3825 | 48879 ± 1315 | 45830 ± 6990 | 53185 ± 13281 | 32676 ± 5379
